Assay results as given in patent publication US20210355207A1 (ACADEMIA SINICA, published 2021).

Tests used:
[1] = biological target: T1, synthetic peptide LKNQNQELPEDVNPAKKENYLSEQD (SEQ ID NO: 2); experiment: ELISA screen of hybridoma clones on peptide
T1 construct: Used to screen the hybridoma clones by ELISA; also called another synthetic peptide
T1 peptide: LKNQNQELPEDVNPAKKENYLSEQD

[2] = biological target: T2, human advillin-flag (hAvil-flag), exogenously expressed in 293 cells (human, UniProt O75366 1-819); experiment: western blot of lysates of 293 cells transfected with hAvil-flag or vector control
T2 construct: also called exogenous expression of human advillin clone; expression plasmid of human advillin; not shown: flag tag from the p3xFLAG-CMV14 vector
T2 sequence (looked up): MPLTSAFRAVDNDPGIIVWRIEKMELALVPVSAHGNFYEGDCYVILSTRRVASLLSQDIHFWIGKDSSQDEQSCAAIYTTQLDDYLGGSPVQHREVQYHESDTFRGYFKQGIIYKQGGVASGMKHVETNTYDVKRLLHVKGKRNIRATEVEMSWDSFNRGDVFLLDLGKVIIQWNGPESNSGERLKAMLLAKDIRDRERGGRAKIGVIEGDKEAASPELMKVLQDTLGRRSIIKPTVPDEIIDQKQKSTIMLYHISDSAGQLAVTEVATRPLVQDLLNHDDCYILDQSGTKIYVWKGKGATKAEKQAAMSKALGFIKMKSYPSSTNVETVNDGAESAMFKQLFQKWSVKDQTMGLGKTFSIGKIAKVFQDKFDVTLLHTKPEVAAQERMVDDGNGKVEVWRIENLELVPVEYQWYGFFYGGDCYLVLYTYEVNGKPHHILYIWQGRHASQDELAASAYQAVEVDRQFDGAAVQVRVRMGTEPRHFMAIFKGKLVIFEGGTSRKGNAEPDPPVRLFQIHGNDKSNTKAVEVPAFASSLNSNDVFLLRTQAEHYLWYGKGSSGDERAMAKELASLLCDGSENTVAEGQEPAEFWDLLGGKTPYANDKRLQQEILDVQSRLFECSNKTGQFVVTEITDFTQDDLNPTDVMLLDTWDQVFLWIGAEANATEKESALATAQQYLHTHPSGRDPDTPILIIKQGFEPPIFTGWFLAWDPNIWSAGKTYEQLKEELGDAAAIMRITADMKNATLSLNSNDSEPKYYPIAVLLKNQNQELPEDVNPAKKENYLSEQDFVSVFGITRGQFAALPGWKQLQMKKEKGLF
From the text: FIG. 6 The monoclonal antibody of human advillin specifically recognized exogenous expression of human advillin in 293 cells. Human advillin clone was tagged with flag, and the construct of human advillin-flag (hAvil-flag) or vector control (flag) were transfected into 293 cells. The lysates were detected with the monoclonal antibody of human advillin and flag antibody respectively. The molecular weight of human advillin is predicted as 92 KDa and the detected signals were corresponded to predicted size of hAvil-flag around 100 KDa. The top signal is supposed as aggregated forms as detected in the flag-antibody recognized signal.
Primary antibodies used in western blot were rabbit polyclonal anti-mouse advillin (1 μg/ml), mouse monoclonal anti-human advillin, and rabbit anti-albumin (1:1000, both GeneTex, San Antonio, Tex., USA). […] Cerebrospinal fluid (CSF) samples or protein from cell lysates separated by SDS-PAGE were transferred onto PVDF membranes by using a Mini Trans-Blot Electrophoretic Transfer Cell (Bio-rad, CA, USA). […] Enhanced chemiluminescence (ECL) involved the Immobilon ECL Kit (Millipore, MA, USA) and signals were detected by using the BioSpectrum Auto Imaging System (UVP, CA, USA). […]

B1: monoclonal antibody of human advillin hAvil, produced by the hybridoma YCC-S1 (antibody, V domains shown)
VH: EVKLEESGGGLVQPGGSLKLSCVASGFAFSNSWMSWVRQSPEKGLEWVAEIRLKSDNYASHYAESVKGRFTISRDDSKSRLYLQMNALRAEDTGIYYCSDGTWFTYWGQGTLVTVST
VL: DIVMSQSPSSLAVSVGEKVTMNCKSSQSLLYRANQKNYLAWYQQKPGQSPKLLIYWASTRESGVPDRFTGSGSGTDFTLTISSVKAEDLAVYYCQQYYSHPFTFGSGTKLKIK
notes: also called mouse monoclonal anti-human advillin; anti-advillin antibody
B1: binds [1]; binds [2].
